According to article PMC11083199, “Cytokine Receptor-like Factor 1 (CRLF1) and Its Role in Osteochondral Repair” (Cells, 2024):

Molecular target: the molecule itself
Assay: non-reducing and reducing SDS gel electrophoresis with immunoblot; conditioned medium of BMSCs transduced with AAV-CRLF1; NuPAGE SDS sample buffer without and with reducing agent, 70 °C for 10 min, 10% bis-Tris gels; blotted with antibodies specific for CRLF1 or CLC

B1: Cytokine receptor-like factor 1 (CRLF1) (natural protein, human, UniProt O75462 38-422, looked up)
chain: AHTAVISPQDPTLLIGSSLLATCSVHGDPPGATAEGLYWTLNGRRLPPELSRVLNASTLALALANLNGSRQRSGDNLVCHARDGSILAGSCLYVGLPPEKPVNISCWSKNMKDLTCRWTPGAHGETFLHTNYSLKYKLRWYGQDNTCEEYHTVGPHSCHIPKDLALFTPYEIWVEATNRLGSARSDVLTLDILDVVTTDPPPDVHVSRVGGLEDQLSVRWVSPPALKDFLFQAKYQIRYRVEDSVDWKVVDDVSNQTSCRLAGLKPGTVYFVQVRCNPFGIYGSKKAGIWSEWSHPTAASTPRSERPGPGGGACEPRGGEPSSGPVRRELKQFLGWLKKHAYCSNLSFRLYDQWRAWMQKSHKTRNQDEGILPSGRRGTARGPAR
notes: Cytokine receptor-like factor 1, human, full-length cDNA cloned into an AAV vector; released into the medium by BMSCs; Full-length cDNA was cloned into the backbone pENN.AAV.CB7.Cl.eGFP.WPRE.rBG (Addgene 105542 is the vector, not this construct); Bands: ~110 kDa non-reduced, 55 kDa reduced; also called CRLF1dim; CRLF1mon; source: human BMSCs transduced with AAV containing CRLF1, in conditioned …
stoichiometry N: 2
